Assay results taken from patent US20220205015A1 (NANYANG TECHNOLOGICAL UNIVERSITY, published 2022).
Read-outs that look alike come from different tables or passages of the source. Where no end group is shown, it is not given here.

Columns and labels:
[1] = system: T1, LL37ARRA (CLLGDFARRAKEKIG)
T1 sequence: CLLGDFARRAKEKIG

[2] = molecular target: T2, OmpT (omptin outer membrane protease of Escherichia coli), recombinant, reconstituted in detergent micelles (Escherichia coli, UniProt P09169 21-317); assay: cell-based or functional assay
T2 sequence: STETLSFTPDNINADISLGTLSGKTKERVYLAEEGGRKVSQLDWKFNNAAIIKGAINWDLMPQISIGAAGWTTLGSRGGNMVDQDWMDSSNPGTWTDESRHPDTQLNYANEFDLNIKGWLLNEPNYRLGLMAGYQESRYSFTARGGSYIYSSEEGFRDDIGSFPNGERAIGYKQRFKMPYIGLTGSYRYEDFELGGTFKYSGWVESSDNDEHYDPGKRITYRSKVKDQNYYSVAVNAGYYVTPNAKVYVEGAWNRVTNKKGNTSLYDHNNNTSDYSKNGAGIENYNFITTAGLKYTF

[3] = molecular target: T3, LL37ARRA (CLLGDFARRAKEKIG)
T3 chain: CLLGDFARRAKEKIG

[4] = molecular target: T4, LL37FRRA (CLLGDFFRRAKEKIG)
T4 chain: CLLGDFFRRAKEKIG

[5] = molecular target: T5, LL37FRRV (CLLGDFFRRVKEKIG)
T5 chain: CLLGDFFRRVKEKIG

[6] = molecular target: T6, LL37FRRY (CLLGDFFRRYKEKIG)
T6 chain: CLLGDFFRRYKEKIG

[7] = molecular target: T7, LL37YRRA (CLLGDFYRRAKEKIG)
T7 chain: CLLGDFYRRAKEKIG

Molecule: PgtE (omptin protease, present on pathogenic Salmonella typhi)
- proteolytic activity, measured as the change in PT6 fluorescence with time [1]: OmpT exhibits a higher preference for LL37ARRA (SEQ ID NO: 11) than does PgtE

B1: LL37FRRV (CLLGDFFRRVKEKIG) (peptide)
peptide: CLLGDFFRRVKEKIG-NH2
- incubation time with OmpT for an almost complete reduction in PT6 fluorescence [2]: > 40 min

B2: OmpT (omptin outer membrane protease of Escherichia coli), recombinant, reconstituted in detergent micelles (protein)
chain: T2 sequence
- proteolytic activity, measured as the change in PT6 fluorescence with time [3]: OmpT exhibits a higher preference for LL37ARRA (SEQ ID NO: 11) than does PgtE
- rate of cleavage by OmpT [4]: cleaved by the protease (OmpT) much more rapidly than the LL37FRRY peptide substrate used in Examples 1-5
- time to full cleavage by OmpT [4]: fully cleaved by OmpT in less than 20 min
- SAMDI-MS screen of a peptide array for cleavage by omptin proteases [5]: 400 times better then original peptide
- cleavage, confirmed by MALDI-TOF [5]: it was cleaved at the dibasic site (-R8-R9-) to yield two short fragments of eight and seven residues
- rate of cleavage by OmpT [6]: cleaved by the protease (OmpT) much more rapidly than the LL37FRRY peptide substrate used in Examples 1-5
- rate of cleavage by OmpT [7]: cleaved by the protease (OmpT) much more rapidly than the LL37FRRY peptide substrate used in Examples 1-5
- time to full cleavage by OmpT [7]: fully cleaved by OmpT in less than 20 min

B3: LL37FRRA (CLLGDFFRRAKEKIG) (peptide)
peptide: CLLGDFFRRAKEKIG
- colour of PT6 under UV-A light after incubation with OmpT [2]: ≤ 10 min
- incubation time with OmpT for an almost complete reduction in PT6 fluorescence [2]: < 20 min

B4: LL37FRRY (CLLGDFFRRYKEKIG) (peptide)
peptide: CLLGDFFRRYKEKIG
- colour of PT6 under UV-A light after incubation with OmpT [2]: ≤ 10 min
- incubation time with OmpT for an almost complete reduction in PT6 fluorescence [2]: < 20 min

B5: LL37YRRA (CLLGDFYRRAKEKIG) (peptide)
peptide: CLLGDFYRRAKEKIG
- colour of PT6 under UV-A light after incubation with OmpT [2]: ≤ 10 min
- incubation time with OmpT for an almost complete reduction in PT6 fluorescence [2]: < 20 min
